Biological target: T1, fused protein GST-GPC3 (GST and human glypican-3 peptide of SEQ ID NO: 16) (human, UniProt P51654 524-563)
T1 construct: It was immobilized on a BIACORE chip; also called GPC3 peptide; not shown: GST (glutathione S-transferase)
Experiment: SPR (BIACORE 3000), CHO culture supernatant over immobilized GST-GPC3
Procedure: This was introduced into 2×10⁶/0.6 ml PBS(−) of CHO cells (strain DXB11S) according to an electroporation method under a condition of 1.5 kV and 25 uF. The cells were incubated in a 8% CO₂ incubator at 37° C. The cells were screened in CHO-S-SFMII medium (Invitrogen) containing 400 μg/ml of geneticin. Selected cells were inoculated into a CHO-S-SFMII medium containing 400 μg/ml geneticin in a 96-well plate at 0.4 cells/100 μl/well, and the cells were cloned according to a limiting dilution method. The culture supernatant was analyzed with BIACORE 3000. The antigen was quantified using a chip with fused protein GST-GPC3 (antigen GST and human glypican-3 shown by SEQ ID NO:16) immobilized thereon, and high-expression cells were selected.

T1 sequence (P51654 524-563 limits assumed): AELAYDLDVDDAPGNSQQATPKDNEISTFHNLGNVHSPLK

Binder | binding result
Fc-modified humanized anti-GPC3 antibody V209 (S239D/A330L/I332E) (antibody, human IgG1, G1m(1) allotype) heavy: QVQLVQSGAEVKKPGASVKVSCKASGYTFTDYEMHWVRQAPGQGLEWMGALDPKTGDTAYSQKFKGRVTLTADKSTSTAYMELSSLTSEDTAVYYCTRFYSYTYWGQGTLVTVSSASTKGPSVFPLAPSSKSTSGGTAALGCLVKDYFPEPVTVSWNSGALTSGVHTFPAVLQSSGLYSLSSVVTVPSSSLGTQTYICNVNHKPSNTKVDKKVEPKSCDKTHTCPPCPAPELLGGPDVFLFPPKPKDTLMISRTPEVTCVVVDVSHEDPEVKFNWYVDGVEVHNAKTKPREEQYNSTYRVVSVLTVLHQDWLNGKEYKCKVSNKALPLPEEKTISKAKGQPREPQVYTLPPSRDELTKNQVSLTCLVKGFYPSDIAVEWESNGQPENNYKTTPPVLDSDGSFFLYSKLTVDKSRWQQGNVFSCSVMHEALHNHYTQKSLSLSPGK VL: DVVMTQSPLSLPVTPGEPASISCRSSQSLVHSNGNTYLHWYLQKPGQSPQLLIYKVSNRFSGVPDRFSGSGSGTDFTLKISRVEAEDVGVYYCSQNTHVPPTFGQGTKLEIK | binds
Fc-modified humanized anti-GPC3 antibody V922 (S239D/K326T/I332E) (antibody, human IgG1) heavy: QVQLVQSGAEVKKPGASVKVSCKASGYTFTDYEMHWVRQAPGQGLEWMGALDPKTGDTAYSQKFKGRVTLTADKSTSTAYMELSSLTSEDTAVYYCTRFYSYTYWGQGTLVTVSSASTKGPSVFPLAPSSKSTSGGTAALGCLVKDYFPEPVTVSWNSGALTSGVHTFPAVLQSSGLYSLSSVVTVPSSSLGTQTYICNVNHKPSNTKVDKKVEPKSCDKTHTCPPCPAPELLGGPDVFLFPPKPKDTLMISRTPEVTCVVVDVSHEDPEVKFNWYVDGVEVHNAKTKPREEQYNSTYRVVSVLTVLHQDWLNGKEYKCKVSNTALPAPEEKTISKAKGQPREPQVYTLPPSRDELTKNQVSLTCLVKGFYPSDIAVEWESNGQPENNYKTTPPVLDSDGSFFLYSKLTVDKSRWQQGNVFSCSVMHEALHNHYTQKSLSLSPGK VL: DVVMTQSPLSLPVTPGEPASISCRSSQSLVHSNGNTYLHWYLQKPGQSPQLLIYKVSNRFSGVPDRFSGSGSGTDFTLKISRVEAEDVGVYYCSQNTHVPPTFGQGTKLEIK | binds
Fc-modified humanized anti-GPC3 antibody V22 (I332E) (antibody, also called pC-aGPChl (22)) heavy: not shown VL: DVVMTQSPLSLPVTPGEPASISCRSSQSLVHSNGNTYLHWYLQKPGQSPQLLIYKVSNRFSGVPDRFSGSGSGTDFTLKISRVEAEDVGVYYCSQNTHVPPTFGQGTKLEIK | binds
Fc-modified humanized anti-GPC3 antibody V209 nG1m(1) allotype (S239D/A330L/I332E/D356E/L358M) (antibody, human IgG1, name in EU numbering) heavy: QVQLVQSGAEVKKPGASVKVSCKASGYTFTDYEMHWVRQAPGQGLEWMGALDPKTGDTAYSQKFKGRVTLTADKSTSTAYMELSSLTSEDTAVYYCTRFYSYTYWGQGTLVTVSSASTKGPSVFPLAPSSKSTSGGTAALGCLVKDYFPEPVTVSWNSGALTSGVHTFPAVLQSSGLYSLSSVVTVPSSSLGTQTYICNVNHKPSNTKVDKKVEPKSCDKTHTCPPCPAPELLGGPDVFLFPPKPKDTLMISRTPEVTCVVVDVSHEDPEVKFNWYVDGVEVHNAKTKPREEQYNSTYRVVSVLTVLHQDWLNGKEYKCKVSNKALPLPEEKTISKAKGQPREPQVYTLPPSREEMTKNQVSLTCLVKGFYPSDIAVEWESNGQPENNYKTTPPVLDSDGSFFLYSKLTVDKSRWQQGNVFSCSVMHEALHNHYTQKSLSLSPGK VL: DVVMTQSPLSLPVTPGEPASISCRSSQSLVHSNGNTYLHWYLQKPGQSPQLLIYKVSNRFSGVPDRFSGSGSGTDFTLKISRVEAEDVGVYYCSQNTHVPPTFGQGTKLEIK | binds
Fc-modified humanized anti-GPC3 antibody V212 (S239D/S298A/I332E) (antibody, human IgG1, also called pC-aGPChl (212)) heavy: QVQLVQSGAEVKKPGASVKVSCKASGYTFTDYEMHWVRQAPGQGLEWMGALDPKTGDTAYSQKFKGRVTLTADKSTSTAYMELSSLTSEDTAVYYCTRFYSYTYWGQGTLVTVSSASTKGPSVFPLAPSSKSTSGGTAALGCLVKDYFPEPVTVSWNSGALTSGVHTFPAVLQSSGLYSLSSVVTVPSSSLGTQTYICNVNHKPSNTKVDKKVEPKSCDKTHTCPPCPAPELLGGPDVFLFPPKPKDTLMISRTPEVTCVVVDVSHEDPEVKFNWYVDGVEVHNAKTKPREEQYNATYRVVSVLTVLHQDWLNGKEYKCKVSNKALPAPEEKTISKAKGQPREPQVYTLPPSRDELTKNQVSLTCLVKGFYPSDIAVEWESNGQPENNYKTTPPVLDSDGSFFLYSKLTVDKSRWQQGNVFSCSVMHEALHNHYTQKSLSLSPGK VL: DVVMTQSPLSLPVTPGEPASISCRSSQSLVHSNGNTYLHWYLQKPGQSPQLLIYKVSNRFSGVPDRFSGSGSGTDFTLKISRVEAEDVGVYYCSQNTHVPPTFGQGTKLEIK | binds

From US20150098941A1 (Chugai, published 2015)
